Assay results published in paper PMC4537775 (Cell, 2015).
Where a chain is given by its changes, count along the chain named. Numbers in names are those of the source. Like-named read-outs stand apart in the source and are kept apart here.

B1: full-length IstB (AAA+ ATPase subunit of the Geobacillus stearothermophilus IS21 family member IS5376) (natural protein, UniProt Q45619 1-251, looked up)
chain: MKERIHEYCHRLHLPVMAERWSAMAEYASTHNISYSEFLFRLLEAEIVEKQARSIQTLIKLSKLPYRKTIDTFDFTAQPSVDERRIRELLTLSFIDRKENILFLGPPGIGKTHLAISIGMEAIARGYKTYFITAHDLVNQLRRADQEGKLEKKLRVFVKPTVLIIDEMGYLKLDPNSAHYLFQVIARRYEHAPIILTSNKSFGEWGEIVGDSVLATAMLDRLLHHSIIFNLKGESYRLREKRLQEEKQKDQ
B2: full-length IstB arginine finger mutant R221A (natural protein, Geobacillus stearothermophilus, UniProt Q45619 1-251, looked up)
chain: B1 chain with R221A
B3: full-length IstB sensor-II mutant R237A (natural protein, Geobacillus stearothermophilus, UniProt Q45619 1-251, looked up)
chain: B1 chain with R237A
B4: full-length IstB Walker-B mutant E167Q (natural protein, Geobacillus stearothermophilus, UniProt Q45619 1-251, looked up)
chain: B1 chain with E167Q
B5: full-length IstB Walker-A mutant K111A (natural protein, Geobacillus stearothermophilus, UniProt Q45619 1-251, looked up)
chain: B1 chain with K111A

What was measured:
SEC [1] = target: the molecule itself; test: SEC
SEC [2] = target: the molecule itself; test: SEC; remark: listed apart in the source

| Protein | stoichiometry N (SEC [1]) | stoichiometry N (SEC [2]) |
| --- | --- | --- |
| B1 | 2 |  |
| B2 |  | 2 |
| B3 |  | 2 |
| B4 |  | 2 |
| B5 |  | 2 |
